This is an account of results in patent EP1918299A1 (UNIVERSITE DE GENEVE, dated 2008).

T1: myc-tagged version of Necl-3 (pNecl-3-myc) (human, UniProt Q8N3J6 25-435)
T1 construct: On S2 cells in the aggregation assay; not shown: C-terminal myc-His tag of vector pcDNA3.1/myc-His
T1 sequence: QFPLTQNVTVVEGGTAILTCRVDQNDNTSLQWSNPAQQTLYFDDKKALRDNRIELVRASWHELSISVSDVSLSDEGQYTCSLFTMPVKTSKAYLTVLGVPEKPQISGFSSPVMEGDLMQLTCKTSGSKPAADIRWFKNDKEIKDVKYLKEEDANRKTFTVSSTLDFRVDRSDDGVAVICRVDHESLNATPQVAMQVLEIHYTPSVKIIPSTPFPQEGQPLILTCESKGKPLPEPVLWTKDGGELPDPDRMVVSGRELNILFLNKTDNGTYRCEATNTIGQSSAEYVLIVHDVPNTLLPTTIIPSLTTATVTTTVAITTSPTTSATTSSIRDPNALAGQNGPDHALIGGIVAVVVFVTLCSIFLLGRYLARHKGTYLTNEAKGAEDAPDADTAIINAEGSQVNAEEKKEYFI

T2: Necl-1-GFP (human Necl-1 fused to GFP at its carboxy-terminus) (human, UniProt Q8N126 25-398)
T2 construct: Expressed in S2 cells; In lysate in the western blot; also called pMT-Necl-1-GFP; not shown: GFP of vector pEGFP-N1 (BD Biosciences Clontech), C-terminal fusion
T2 sequence: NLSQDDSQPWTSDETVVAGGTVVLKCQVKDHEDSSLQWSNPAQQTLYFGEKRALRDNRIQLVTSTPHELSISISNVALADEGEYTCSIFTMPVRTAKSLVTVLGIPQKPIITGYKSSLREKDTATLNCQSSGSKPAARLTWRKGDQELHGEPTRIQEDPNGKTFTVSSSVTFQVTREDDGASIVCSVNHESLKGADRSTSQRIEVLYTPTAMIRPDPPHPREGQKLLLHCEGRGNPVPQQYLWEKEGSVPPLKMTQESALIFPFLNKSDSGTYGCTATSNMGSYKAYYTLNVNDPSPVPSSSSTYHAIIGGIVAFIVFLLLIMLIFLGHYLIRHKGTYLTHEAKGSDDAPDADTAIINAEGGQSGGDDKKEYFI

B1: Necl-2-GFP (human Necl-2 fused to GFP at its carboxy-terminus) (other)
chain: QNLFTKDVTVIEGEVATISCQVNKSDDSVIQLLNPNRQTIYFRDFRPLKDSRFQLLNFSSSELKVSLTNVSISDEGRYFCQLYTDPPQESYTTITVLVPPRNLMIDIQKDTAVEGEEIEVNCTAMASKPATTIRWFKGNTELKGKSEVEEWSDMYTVTSQLMLKVHKEDDGVPVICQVEHPAVTGNLQTQRYLEVQYKPQVHIQMTYPLQGLTREGDALELTCEAIGKPQPVMVTWVRVDDEMPQHAVLSGPNLFINNLNKTDNGTYRCEASNIVGKAHSDYMLYVYDPPTTIPPPTTTTTTTTTTTTTILTIITDSRAGEEGSIRAVDHAVIGGVVAVVVFAMLCLLIILGRYFARHKGTYFTHEAKGADDAADADTAIINAEGGQNNSEEKKEYFI
notes: Expressed in S2 cells; on cells in aggregation assays, in cell lysate in the western blot and the pull-down; also called pMT-Necl-2-GFP; not shown: GFP of vector pEGFP-N1 (BD Biosciences Clontech), C-terminal fusion
B2: Necl-1-DsRed2 (human Necl-1 fused to DsRed2) (other)
chain: T2 sequence
notes: On S2 cells; also called pMT-Necl-1-DsRed2; not shown: DsRed2 (Discosoma Red) of vector pDsRed2-N1 (BD Biosciences Clontech), C-terminal fusion
B3: Necl-3-GFP (human Necl-3 fused to GFP at its carboxy-terminus) (other)
chain: T1 sequence
notes: Expressed in Drosophila S2 cells; on cells in the aggregation assays, in crude cell lysate in the western blot; also called pMT-Necl-3-GFP; not shown: GFP of vector pEGFP-N1 (BD Biosciences Clontech), C-terminal fusion
B4: Necl-4-DsRed2 (human Necl-4 fused to DsRed2) (other)
chain: QEVQTENVTVAEGGVAEITCRLHQYDGSIVVIQNPARQTLFFNGTRALKDERFQLEEFSPRRVRIRLSDARLEDEGGYFCQLYTEDTHHQIATLTVLVAPENPVVEVREQAVEGGEVELSCLVPRSRPAATLRWYRDRKELKGVSSSQENGKVWSVASTVRFRVDRKDDGGIIICEAQNQALPSGHSKQTQYVLDVQYSPTARIHASQAVVREGDTLVLTCAVTGNPRPNQIRWNRGNESLPERAEAVGETLTLPGLVSADNGTYTCEASNKHGHARALYVLVVYDPGAVVEAQTSVPYAIVGGILALLVFLIICVLVGMVWCSVRQKGSYLTHEASGLDEQGEAREAFLNGSDGHKRKEEFFI
notes: On S2 cells; also called pMT-Necl-4-DsRed2; not shown: DsRed2 (Discosoma Red) of pMT-DsRed2, C-terminal fusion
B5: Necl-4-GFP (human Necl-4 fused to GFP at its carboxy-terminus) (other)
chain: B4 chain
notes: In lysate in the western blot; also called pMT-Necl-4-GFP; not shown: GFP of vector pEGFP-N1 (via pMT-GFP), C-terminal fusion

Experiment in all cases: S2 cell aggregation assay
The target in data set [1] is T1, myc-tagged version of Necl-3 ….
The target of data set [2] is B3.
Data set [3] concerns the molecule itself.
Data set [4] deals with T2, Necl-1-GFP (human Necl-1 fused to GFP …).
Data set [5] concerns the target B1.

Take B1: in data set [1], the binding result is on record as “binds”.

Regarding B2, the binding result in data set [2] is “binds”.

For the molecule B3, the binding result in data set [3] is on record as “binds”.

Take B4: the binding result in data set [2], in data set [4] and in data set [5] was “binds” in each case.

On to B5, for which the binding result in data set [3] is recorded as “binds”.
